Measurements as given in paper PMC8206812 (Frontiers in Bioengineering and Biotechnology, 2021).

How the values were obtained:
[1] = target: T1, yeast hexokinase (HK) (Saccharomyces cerevisiae, UniProt P04807); assay: coupled G6PDH assay, NADH formation; assay type: biochemical; conditions: inhibition by product; 0.15-20 mM ADP, 30 °C, pH 7.5
T1 construct: gene HXK2; commercial preparation containing predominantly the PII isoform (HXK2); may contain some PI
T1 sequence (P04807 2-486): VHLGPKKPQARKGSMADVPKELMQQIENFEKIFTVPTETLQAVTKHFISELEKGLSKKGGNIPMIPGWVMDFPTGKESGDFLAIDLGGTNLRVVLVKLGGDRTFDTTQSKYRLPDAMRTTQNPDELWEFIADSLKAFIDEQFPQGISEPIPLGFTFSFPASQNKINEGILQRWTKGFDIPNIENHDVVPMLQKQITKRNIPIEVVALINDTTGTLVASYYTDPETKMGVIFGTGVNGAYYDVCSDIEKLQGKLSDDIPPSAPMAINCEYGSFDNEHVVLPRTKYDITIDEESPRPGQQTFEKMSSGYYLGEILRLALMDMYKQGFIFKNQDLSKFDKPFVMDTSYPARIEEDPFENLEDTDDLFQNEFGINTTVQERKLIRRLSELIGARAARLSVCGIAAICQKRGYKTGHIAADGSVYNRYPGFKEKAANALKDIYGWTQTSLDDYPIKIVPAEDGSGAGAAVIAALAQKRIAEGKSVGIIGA

[2] = substrate: Nc1ncnc2c1ncn2[C@@H]1O[C@H](COP(=O)(O)OP(=O)(O)O)[C@@H](O)[C@H]1O; assay: luciferase ATP determination assay; assay type: biochemical, Pseudomonas aeruginosa; conditions: 0-20 mM ADP, 10 mM sodium polyphosphate (Graham's salt), 10 mM MgCl2, sodium phosphate pH 7.5, 30 °C
[3] = substrate: Nc1ncnc2c1ncn2[C@@H]1O[C@H](COP(=O)(O)OP(=O)(O)OP(=O)(O)O)[C@@H](O)[C@H]1O; assay: coupled G6PDH assay, NADH formation; assay type: biochemical, Saccharomyces cerevisiae; conditions: 200 mM glucose, 10 mM MgCl2, 50 mM sodium phosphate pH 7.5, 30 °C
Text: coupled G6PDH assay, NADH formation on yeast hexokinase (HK)

`Nc1ncnc2c1ncn2[C@@H]1O[C@H](COP(=O)(O)OP(=O)(O)O)[C@@H](O)[C@H]1O` [ADP] was tested, and the relative activity [1] was “ADP lowered the reaction even at small concentrations”.

B1: PPK2 (Pseudomonas aeruginosa PAO1) (protein)
chain: MDSYGDTSGRIGRDWLDRHDEELEQELLDDELNLDELFGPEQEDAPGELSRRRYFRELFRLQRELVKLQNWVVHTGHKVVILFEGRDAAGKGGVIKRITQRLNPRVCRVAALPAPNDREQTQWYFQRYVSHLPAGGEIVLFDRSWYNRAGVERVMGFCNDEQYEEFFRSVPEFEKMLARSGIQLLKYWFSISDAEQHLRFLSRIHDPLKQWKLSPMDLESRRRWEAYTKAKETMLERTHIPEAPWWVVQADDKKRARLNCIHHLLQQMPYREVPQPPVHLPERLRHADYVRHPTPGEIIVPEVY
notes: about 39 kDa; E. coli BL21 (DE3)
B1 was tested, and the Km [2] was 23 ± 5.9 µM.

B2: yeast hexokinase (HK) (Saccharomyces cerevisiae S288C) (protein)
chain: VHLGPKKPQARKGSMADVPKELMQQIENFEKIFTVPTETLQAVTKHFISELEKGLSKKGGNIPMIPGWVMDFPTGKESGDFLAIDLGGTNLRVVLVKLGGDRTFDTTQSKYRLPDAMRTTQNPDELWEFIADSLKAFIDEQFPQGISEPIPLGFTFSFPASQNKINEGILQRWTKGFDIPNIENHDVVPMLQKQITKRNIPIEVVALINDTTGTLVASYYTDPETKMGVIFGTGVNGAYYDVCSDIEKLQGKLSDDIPPSAPMAINCEYGSFDNEHVVLPRTKYDITIDEESPRPGQQTFEKMSSGYYLGEILRLALMDMYKQGFIFKNQDLSKFDKPFVMDTSYPARIEEDPFENLEDTDDLFQNEFGINTTVQERKLIRRLSELIGARAARLSVCGIAAICQKRGYKTGHIAADGSVYNRYPGFKEKAANALKDIYGWTQTSLDDYPIKIVPAEDGSGAGAAVIAALAQKRIAEGKSVGIIGA
notes: commercial preparation containing predominantly the PII isoform (HXK2); may contain some PI
With B2 the Km [3] was 1107 ± 74 µM and the Vmax [3] was 33 µM/min.
